Consider one substance from paper PMC8099778.

The assay deals with myosin VI (mouse (endogenous in mouse brain)) (UniProt Q64331). Nature of the assay: co-IP.
UniProt Q64331, sequence (Q64331 whole entry): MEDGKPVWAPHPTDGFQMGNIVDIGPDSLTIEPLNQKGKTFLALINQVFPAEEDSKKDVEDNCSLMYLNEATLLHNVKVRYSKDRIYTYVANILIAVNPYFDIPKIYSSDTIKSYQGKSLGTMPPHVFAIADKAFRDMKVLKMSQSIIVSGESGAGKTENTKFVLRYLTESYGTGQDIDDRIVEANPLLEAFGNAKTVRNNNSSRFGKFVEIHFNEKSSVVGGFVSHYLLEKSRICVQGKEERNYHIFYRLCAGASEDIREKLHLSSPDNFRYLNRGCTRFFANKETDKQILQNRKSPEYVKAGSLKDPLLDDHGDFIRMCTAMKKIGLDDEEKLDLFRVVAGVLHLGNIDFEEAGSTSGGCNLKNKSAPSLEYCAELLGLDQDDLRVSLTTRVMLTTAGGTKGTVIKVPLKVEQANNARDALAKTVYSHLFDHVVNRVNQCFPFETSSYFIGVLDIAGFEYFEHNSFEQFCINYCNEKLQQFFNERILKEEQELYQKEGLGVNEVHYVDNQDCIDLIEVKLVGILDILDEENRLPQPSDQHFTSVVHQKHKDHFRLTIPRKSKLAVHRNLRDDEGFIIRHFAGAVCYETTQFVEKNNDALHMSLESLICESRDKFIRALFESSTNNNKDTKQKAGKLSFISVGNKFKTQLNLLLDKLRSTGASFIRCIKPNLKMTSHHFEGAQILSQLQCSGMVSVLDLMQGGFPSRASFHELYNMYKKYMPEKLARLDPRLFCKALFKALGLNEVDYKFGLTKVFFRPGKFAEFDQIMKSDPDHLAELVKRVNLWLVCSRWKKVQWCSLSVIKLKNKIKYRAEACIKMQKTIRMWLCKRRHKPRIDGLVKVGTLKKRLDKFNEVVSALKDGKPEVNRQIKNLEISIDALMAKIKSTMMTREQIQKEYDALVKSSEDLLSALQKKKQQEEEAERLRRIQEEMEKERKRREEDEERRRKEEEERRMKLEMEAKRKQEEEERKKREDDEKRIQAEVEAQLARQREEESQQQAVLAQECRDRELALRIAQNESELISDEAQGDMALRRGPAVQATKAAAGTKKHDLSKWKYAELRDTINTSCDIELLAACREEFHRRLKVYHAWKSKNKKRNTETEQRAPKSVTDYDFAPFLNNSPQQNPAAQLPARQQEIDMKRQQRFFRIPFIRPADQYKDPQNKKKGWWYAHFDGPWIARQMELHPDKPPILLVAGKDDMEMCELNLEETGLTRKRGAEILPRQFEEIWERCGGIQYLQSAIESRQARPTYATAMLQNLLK

Regarding “dynein intermediate chain (from UniProt O88485 1-628) (natural protein)”, the DIC coprecipitation normalized to myosin VI immunoprecipitation (wt lysate) came out at 1.44.
